Results published in article doi:10.1101/2021.10.13.464285.

Target: Respiratory syncytial virus fusion (F) glycoprotein (respiratory syncytial virus, strain rA2-mK+ (parent strain A2))
Experiment: cryo-EM structure

“Respiratory syncytial virus fusion (F) glycoprotein (natural protein)” showed a stoichiometry N of 3.
